Measured values from US20220040297A1 (Chugai, published 2022).
Ends that are not written are not given here.

T1: biotin-labeled CD3ε peptide (also: biotin-labeled, site not given here)
T1 construct: also called CD3 peptide; biotinylated CD3ε peptide
T1 peptide: QDGNEEMGGITQTPY

T2: Cy CD3ε/g
T2 construct: also called cynomolgus monkey CD3εγ on Ba/F3 cells
T2 epsilon: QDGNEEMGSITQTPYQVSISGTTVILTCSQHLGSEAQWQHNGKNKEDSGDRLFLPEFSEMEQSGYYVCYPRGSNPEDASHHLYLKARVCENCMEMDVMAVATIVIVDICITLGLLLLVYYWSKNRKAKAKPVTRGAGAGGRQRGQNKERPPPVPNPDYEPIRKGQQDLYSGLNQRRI
T2 gamma: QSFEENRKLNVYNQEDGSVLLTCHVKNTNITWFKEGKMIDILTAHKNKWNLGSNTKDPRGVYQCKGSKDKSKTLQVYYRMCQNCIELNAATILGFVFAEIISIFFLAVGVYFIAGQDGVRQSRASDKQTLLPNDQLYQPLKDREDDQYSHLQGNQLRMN

B1: CE115HA340 / GLS3000 one-arm antibody (antibody, human IgG1, kappa, L234A L235A, N297A)
heavy: QVQLVESGGGLVQPGRSLRLSCAASGFTFSNAWMHWVRQAPGKGLEWVAQIKDKSNNYATYYAESVKGRFTISRDDSKNSIYLQMNSLKTEDTAVYYCRYVHYAAYYGVDAWGQGTTVTVSSASTKGPSVFPLAPSSKSTSGGTAALGCLVKDYFPEPVTVSWNSGALTSGVHTFPAVLQSSGLYSLSSVVTVPSSSLGTQTYICNVNHKPSNTKVDKKVEPKSCDKTHTCPPCPAPEAAGGPSVFLFPPKPKDTLMISRTPEVTCVVVDVSHEDPEVKFNWYVDGVEVHNAKTKPREEQYASTYRVVSVLTVLHQDWLNGKEYKCKVSNKALPAPIEKTISKAKGQPREPQVYTLPPSRCELTKNQVSLSCAVKGFYPSDIAVEWESNGQPENNYKTTPPVLDSDGSFFLVSKLTVDKSRWQQGNVFSCSVMHEALHNHYTQKSLSLSPDYKDDDDK
chain: EPKSSDKTHTCPPCPAPELLGGPSVFLFPPKPKDTLMISRTPEVTCVVVDVSHEDPEVKFNWYVDGVEVHNAKTKPREEQYNSTYRVVSVLTVLHQDWLNGKEYKCKVSNKALPAPIEKTISKAKGQPREPQVCTLPPSRDELTKNQVSLWCLVKGFYPSDIAVEWESNGQPENNYKTTPPVLDSDGSFFLYSKLTVDKSRWQQGNVFSCSVMHEALHNRYTQKSLSLSP
light: DIVMTQSPLSLPVTPGEPASISCRSSQSLVHSNRNTYLHWYQQKPGQAPRLLIYKVSNRFSGVPDRFSGSGSGTDFTLKISRVEAEDVGVYYCGQGTQVPYTFGQGTKLEIKRTVAAPSVFIFPPSDEQLKSGTASVVCLLNNFYPREAKVQWKVDNALQSGNSQESVTEQDSKDSTYSLSSTLTLSKADYEKHKVYACEVTHQGLSSPVTKSFNRGEC
notes: one-arm antibody
B2: IGAR6(2)B02H1 (antibody, human IgG1, kappa, L234A L235A, N297A)
heavy: QVQLVESGGGLVQPGRSLRLSCAASGFTFSNAWMHWVRQAPGKGLEWVAQIKDKGQQYAAYYAPSVKGRFTISRDGCRGDCLDSKNSIYLQMNSLKTEDTAVYYCRYVHYQTYSDGSFYFGVDAWGQGTTVTVSSASTKGPSVFPLAPSSKSTSGGTAALGCLVKDYFPEPVTVSWNSGALTSGVHTFPAVLQSSGLYSLSSVVTVPSSSLGTQTYICNVNHKPSNTKVDKKVEPKSCDKTHTCPPCPAPEAAGGPSVFLFPPKPKDTLMISRTPEVTCVVVDVSHEDPEVKFNWYVDGVEVHNAKTKPREEQYASTYRVVSVLTVLHQDWLNGKEYKCKVSNKALPAPIEKTISKAKGQPREPQVYTLPPSRCELTKNQVSLSCAVKGFYPSDIAVEWESNGQPENNYKTTPPVLDSDGSFFLVSKLTVDKSRWQQGNVFSCSVMHEALHNHYTQKSLSLSPDYKDDDDK
chain: B1 chain
light: B1 light
notes: One-arm antibody
B3: IGAR6(2)B02 (antibody, human IgG1, kappa, L234A L235A, N297A)
heavy: QVQLVESGGGLVQPGRSLRLSCAASGFTFSNAWMHWVRQAPGKGLEWVAQIKDKGQQYAAYYAPSVKGRFTISRDDSKNSIYLQMNSLKTEDTAVYYCRYVHYQTYSDGSFYFGVDAWGQGTTVTVSSASTKGPSVFPLAPSSKSTSGGTAALGCLVKDYFPEPVTVSWNSGALTSGVHTFPAVLQSSGLYSLSSVVTVPSSSLGTQTYICNVNHKPSNTKVDKKVEPKSCDKTHTCPPCPAPEAAGGPSVFLFPPKPKDTLMISRTPEVTCVVVDVSHEDPEVKFNWYVDGVEVHNAKTKPREEQYASTYRVVSVLTVLHQDWLNGKEYKCKVSNKALPAPIEKTISKAKGQPREPQVYTLPPSRCELTKNQVSLSCAVKGFYPSDIAVEWESNGQPENNYKTTPPVLDSDGSFFLVSKLTVDKSRWQQGNVFSCSVMHEALHNHYTQKSLSLSPDYKDDDDK
chain: B1 chain
light: B1 light
notes: One-arm antibody; also called IGA6 (2) B02; IGAR6(2)B02#1
B4: CE#115 (antibody, V domains shown)
VH: EVQLVETGGSLVQPGKSLKLTCATSGFTFSNAWMHWVRQSPEKQLEWVAQIKAKSNNYATYYAESVKGRFTISRDDSKSNIYLQMNSLKEEDTAVYYCRYVHYGAYYGVDAWGQGTSVTVSS
VL: DVVMTQTPVSMSVSLGGQVSISCRSSQSLVHNNGNTYVSWYIQKPSQSPQLLIYKVSNRFSGISDRFSGSGSGTDFTLKISRVEPDDLGVYYCGQGTQDPYTFGAGTKLELK
notes: also called CE115, rat hybridoma culture supernatant

What was measured:
CD3ε homodimer protein [1] = target: T3, CD3ε homodimer protein (human, UniProt P07766 23-126, limits assumed); assay: SPR (Biacore T200, 25°C); CD3ε homodimer immobilized on CM4, one-arm antibody as analyte; first of two CE115HA340 lines (r6, 2.0E-08); the second line (r8) gives 2.7E-08
T3 construct: also called human CD3ε homodimer protein; CD3e homodimer

CD3ε homodimer protein [2] = target: T3, CD3ε homodimer protein; assay: SPR (Biacore T200, 25°C); CD3ε homodimer immobilized on CM4, one-arm antibody as analyte
[3] = target: T4, human IgA-Fc with AviTag, biotinylated (human, UniProt P01876 123-333, limits assumed, biotinylated at the C-terminal AviTag sequence); assay: ECL; biotinylated hIgA, ratio to the no-antigen well
T4 construct: also called hIgA; biotinylated human IgA

[4] = target: T5, integrin αvβ3 (R&D Systems, Inc.) (human, UniProt P06756 31-992; P05106 27-718); assay: ECL; integrin αvβ3 value without against with CD3ε homodimer protein (competitor)
[5] = target: T4, human IgA-Fc with AviTag, biotinylated; assay: ECL; biotinylated hIgA with CD3ε homodimer protein (competitor), ratio to the no-antigen well
[6] = target: T5, integrin αvβ3 (R&D Systems, Inc.); assay: ECL; integrin αvβ3 on plate, ratio to the integrin-free well
[7] = target: T4, human IgA-Fc with AviTag, biotinylated; assay: ECL; biotinylated hIgA with integrin αvβ3 (competitor), ratio to the no-antigen well
[8] = target: T4, human IgA-Fc with AviTag, biotinylated; assay: ECL; hIgA value without against with integrin αvβ3 (competitor)
[9] = target: T5, integrin αvβ3 (R&D Systems, Inc.); assay: ECL; integrin αvβ3 on plate with CD3ε homodimer protein (competitor), ratio to the integrin-free well
[10] = target: T1, biotin-labeled CD3ε peptide; assay: ECL; CD3 peptide as antigen, ratio to the no-antigen well
[11] = target: T4, human IgA-Fc with AviTag, biotinylated; assay: ECL; hIgA signal without against with CD3ε homodimer protein (competitor)
[12] = target: T4, human IgA-Fc with AviTag, biotinylated; assay: ECL; biotinylated hIgA, ratio to the no-antigen well; remark: listed apart in the source
hCD3ε/g = target: T6, hCD3ε/g; assay: cell-ELISA on Ba/F3 cells expressing human CD3εγ, hybridoma culture supernatant (CM)
T6 construct: also called human CD3εγ on Ba/F3 cells

Cy CD3ε/g = target: T2, Cy CD3ε/g; assay: cell-ELISA on Ba/F3 cells expressing cynomolgus monkey CD3εγ, hybridoma culture supernatant (CM)

| Binder | Kd (CD3ε homodimer protein [1]) [nM] | Kd (CD3ε homodimer protein [2]) [nM] | Value as compared with antigen-free well [3] [fold] | Amount of binding to integrin αvβ3 attenuated by CD3 [4] [fold] | Value as compared with antigen-free well [5] [fold] | Value as compared with integrin αvβ3-free well [6] [fold] | Value as compared with antigen-free well [7] [fold] | Amount of binding to hIgA attenuated by integrin αvβ3 [8] [fold] | Value as compared with integrin αvβ3-free well [9] [fold] | Value as compared with antigen-free well [10] [fold] | Amount of binding to hIgA attenuated by CD3 [11] [fold] | Value as compared with antigen-free well [12] [fold] | binding result (hCD3ε/g) | binding result (Cy CD3ε/g) |
| --- | --- | --- | --- | --- | --- | --- | --- | --- | --- | --- | --- | --- | --- | --- |
| B1 | 20 | 27 |  |  |  |  |  |  |  |  |  |  |  |  |
| B2 |  |  | 3.9 | 2.4 | 1 | 438 | 1.6 | 2.5 | 185 | 1410 | 7.4 | 8 |  |  |
| B3 |  |  | 15.6 | 1 | 1 | 0.8 | 15.9 | 1 | 0.8 | 910 | 23.4 | 20 |  |  |
| B4 |  |  |  |  |  |  |  |  |  |  |  |  | binds | binds |
